# Experiment: soluble on expression in E. coli; label from the status in PepcDB or PDB records
row,Sequence,soluble on expression in E. coli
1,GPGSMFFYQRRLASGLPVRFLSLRAWRSSPENFRKTSAFLKALKAKTPAAGVSAEGFGARPVVVITGGERGIGKEVVHQLLREGVDVILCCPFEAEALRTIARLKARVSNSRVHFVKLDLNDEESVRECAAEVLGMTPRIDVLINNSGLVSPLSHKLNKRGYEVVLSINFLGHVLFTELLLERVKASGPSRIVNVASLMHLDACVEGPCKTALDVMAANCDPTSPHHTRNYSLSKLLLVCYTRDLARHLRGTDTAVATLHPGVVITDIYAFAVIFMRVFFRTVFKFPGEGAEVVLYCALADNIRSGSFYADCAEYNSLLSPLAVDDAHNERLRRVLLRYFALDGSKPTGKSLADVVQSTP,not soluble
2,GPGSMGVVLRELRMRQESATFLLAAVSVNPLLRCAWEDLACLVSRETQLAELDAALDGLEPFFMVDIFAAEVRGLLGVTPVSSARLRIAAAAASAPSDGFEPSPPCSAPPEGHAATTTATAAKAGTRTSPLLPPPRTNAGATPPIPAAALSNAWECFSLLFPDTPFCLSQLAHFYYHQRNRLDRAEALYQRIRALDPHYLAILYDYSNVLYTKRDRLGLSSLAQSVYQADAFRAETNFAVGNYYVLLGQHDRAALHFHRATAIDPQCAEAWLLLGHAYVEVKNTTAAVEAYRTAVELNERDYRGWYNLGQIYELLEAYHHALYYYWHTTSLRPADPGMWVAVANCLEHDGRIAESIACLERAETYDSSSSPSYPAYVRRIATHHIANSSYTRACVYLEKLAQSPAASTEDLLLALPFIVQHYVQRARSSVEGFARSSSYDTVLFSPGANNVSLMSSPASGAVAAGRTALHHARAAAALQHLNKAEEHLSTMAELVMPSGHNGAGNEEAAQTPATSAAAGESEQGGAENTAPQRAAEDAPHRRRTRQPRSGAAANASVSASASAALAAVAASTAPSAGDVPPVAFVRSRHQEIGMLRAQAMHLLQIGAGASGSTIPVAASASASVATQPSSSSSQQQQQQQQQRHQQHRNPFVSQLLGRYQ,not soluble
3,GPGSMHPRLSGQGVFPRYGGGWMHQFGHVYALQQELLNAEANNWFRAMELWHTARHEGVAMNVSHYTNILRQCVPPTAWEASLMVLKQMRRENIRPDVVGVGCALAACADANRSEEVEKVFSCFSGKLKLDSICYLALIKAKMSRGGYAEALAVGREQDADGVPFLPHTYTHLLEAAEVADDGEMALELARRMSSEQWPVSDRGREALKKLSTRHHWEEVAEYKQFVAVEDHKLSLPPTLPRG,not soluble
4,GPGSMIMKASGAAVLHAVREKMQEATVAALIVTSSDAHNSEYVATHLQSRAFISHFQGSAGTALITMEKALLWTDGRYWLAAEEEKYPEFDLMKQGQPEVPSLEEWIAANLGSKAVVGMSPYVATVAEWERLSKKINLRPVANIVQDMMPPEKSVRKMYVRPAEFCGATCQERRAAILAELEKKDCDMIILSALDEIAWFTNLRGGDVDYNPVFYAYAVIDKHYENVRLYVNLDKVTDAVRQACEDHIDFYPYEQFEADLKQLPRGRKALVDERQTSEAVFRILKDVGTVTVRVVCGPAQKLKAIKNEVELKGFRDCHVRDGAALTRYLAWLHDQVANKGVTDLNEYDAATKLEEFRAQGEHFVQLSFGSISSIGPNGAMCHYSPAETGSAAIRRDQLYLIDSGAHYWDGTTDVTRTICFTAPSDEQREAYTLVLKGHIALNSIIFPKGTSGVRLDTLARMALWGVGLDYAHGTGHGVGSFLNVHEGPHGISTRPVATGANMELHSIVSNEPGYYKDGHYGIRIENLEEVVECRTKYSATGFYTMSHLTMAPLCRDLIDVSLLTETERAWVDRYHAKVVASIMPHLQQAGDQNAVEYLKYHTRPLFAVNEAYTLLSPDGKGAK,not soluble
5,GPGSMKEIILYTRPNCPYCKRARDLLDKKGVKYTDIDASTSLRQEMVQRANGRNTFPQIFIGDYHVGGCDDLYALENKGKLDSLLQDVH,soluble
6,GPGSMLALSQGLPTVDPALVKAFKRAANNASTSGDVDDDSRRQEVARINKEAQKAWRAEEKSFIPAIYLRTRDPSAEDVLQHLRVTSKAFELNLRFRDIEQLDEMQVKLWSLLTADKSKQTVTISEFTEIMNKLKVWQGQRFEPTPKTSPCREISVRSAQQECPVDTTPLDEVMYVGVAKRPRPSLQLFLSCPRSHAGGVEVAHIYQRFAKQVSLVKCEAELLMWDTNNDGRLTEDELESYVRDLVSRVDALRDISNDILPFYCCAVSRRIFWALDPGMRGTIRIDALLQSPLMDEWVSLQLMREDLPRNWFSAAITSHLYDKFLLLDTRNQGTLNAANMKLYKKGLPTVRDDGLPRGVGPLSSLFIDRFFETSVMMACSELDFRKFVDFVIAVEFLPACQRPLFFWNILDIEGCGVLRPVHVNSFFRETHSKLVEAGLEMPSRETVVQEVFDLIPTAEPLRITREEFVKAPQAGLFVALLIDCLSFWAYENREQR,not soluble

# — the DeepSol protein solubility set
